Experimental data published in patent publication US20100081787A1 (FIBREX MEDICAL RESEARCH AND DEVELOPMENT, published 2010).
Numbered stars: 1 amine (or outer) side, 2 acyl side, 3 side chain; on linkers, the order of the positions; unused ones are H or OH. Square brackets hold non-standard residues; d marks the D form. Ends that are not written are not given here. ACHC(1S,2R) = O=C([C@H]1CCCC[C@H]1N[*:1])[*:2]

Biological target: T1, vascular endothelial (VE) cadherin (human, UniProt P33151 48-784)
T1 sequence (looked up): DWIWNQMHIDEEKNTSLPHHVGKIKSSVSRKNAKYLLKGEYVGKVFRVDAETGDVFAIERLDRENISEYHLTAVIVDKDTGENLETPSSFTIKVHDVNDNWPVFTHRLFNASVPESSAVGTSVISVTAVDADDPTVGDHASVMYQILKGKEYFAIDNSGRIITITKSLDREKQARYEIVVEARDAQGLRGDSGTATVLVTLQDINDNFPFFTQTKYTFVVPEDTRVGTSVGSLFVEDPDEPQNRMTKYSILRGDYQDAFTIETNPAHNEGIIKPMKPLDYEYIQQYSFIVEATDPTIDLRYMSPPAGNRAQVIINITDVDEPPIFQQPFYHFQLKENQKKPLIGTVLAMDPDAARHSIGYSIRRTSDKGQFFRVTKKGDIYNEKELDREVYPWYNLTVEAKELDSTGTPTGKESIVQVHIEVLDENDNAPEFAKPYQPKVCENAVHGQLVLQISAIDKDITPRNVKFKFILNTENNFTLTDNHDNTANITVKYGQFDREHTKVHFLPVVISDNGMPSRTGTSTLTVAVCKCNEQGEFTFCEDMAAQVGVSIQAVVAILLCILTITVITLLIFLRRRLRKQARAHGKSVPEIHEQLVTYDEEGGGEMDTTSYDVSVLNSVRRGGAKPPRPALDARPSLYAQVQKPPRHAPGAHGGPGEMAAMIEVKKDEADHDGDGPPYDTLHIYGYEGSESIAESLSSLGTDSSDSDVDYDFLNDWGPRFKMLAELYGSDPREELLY
Assay: cell-based or functional assay

GHRP[ACHC(1S,2R)]ISGG [Gly-His-Arg-Pro-(1S, 2R)Achc-Ile-Ser-Gly-Gly]
Relative RhoA stimulation compared to unstimulated control: 2.2 relative to unstimulated control
